We go through 37 sequences from the supplement of paper PMC7877785.

± gives the uncertainty stated by the source.

This data set is described as follows: self-splicing fitness, log relative to wild type (ln ratio); higher = more splicing; Tetrahymena group I intron in knt gene, E. coli kanamycin selection, DiMSum; sequences stand for … in CUCUCU…GGAGGGAAAAGUUAUCAGGCAUGCACCUGGUAGCUAGUCUUUAAACCAAUAGAUUGCAUCGGUUUAAAAGGCAAGACCGUCAAAUUGCGGGAAAGGGGUCAACAGCCGUUCAGUACCAAGUCUCAGGGGAAACUUUGAGAUGGCCUUGCAAAGGGUAUGGUAAUAAGCUGACGGACAUGGUCCUAACCACGCAGCCAAGUCCUAAGUCAACAGAUCUUCUGUUGAUAUGGAUGCAGUUCACAGACUAAAUGUCGGUCGGGGAAGAUGUAUUCUUCUCAUAAGAUAUAGUCGGACCUCUCCUUAAUGGGAGCUAGCGGAUGAAGUGAUGCAACACUGGAGCCGCUGGGAACUAAUUUGUAUGCGAAAGUAUAUUGAUUAGUUUUGGAGUACUCGUGGUCG
The method in brief:
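Six replicate transformations of E. coli BL21(DE3) with a pET-22b(+) library were grown overnight at 37°C or 30°C. The library randomised all eight P1ex-region intron nucleotides, the intron lying in the knt kanamycin-resistance gene, and plates were LB agar with or without 25 μg/mL kanamycin plus 100 μg/mL carbenicillin, 50 μM IPTG and 0.2% rhamnose. Pooled colonies were amplicon-sequenced on an Illumina HiSeq 2500, and fitness is the DiMSum error-weighted combination of wild-type-normalised replicate fold changes, kanamycin versus none.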

Take UGCUAGCAAUAUUACGAGAC: the “self-splicing fitness (ln)” value runs as follows: (30 °C) -3.12 ± 0.35; (37 °C) -2.11 ± 0.36. The like results for CAUCAGCAAUAUUACGGUUA were, in that order, -0.767 ± 0.1 and -0.102 ± 0.1. Turning to AGCAAGCAAUAUUACGGGGA, the “self-splicing fitness (ln)” value by setting is: (30 °C) -2.7 ± 0.14; (37 °C) -2.1 ± 0.14. The like results for AUCUAGCAAUAUUACGCUGU were, in that order, -1.61 ± 0.14 and -1.17 ± 0.18. The like results for GUCCAGCAAUAUUACGACAC were, in that order, 1.02 ± 0.18 and 0.572 ± 0.24.

Regarding AGCUAGCAAUAUUACGCUAU, the “self-splicing fitness (ln)” value reads like this: (30 °C) -2.89 ± 0.21; (37 °C) -1.42 ± 0.18.

UUGCAGCAAUAUUACGCAAA: the “self-splicing fitness (ln)” value by setting is: (30 °C) -1.35 ± 0.21; (37 °C) -2.35 ± 0.39.

As to CCGUAGCAAUAUUACGGAGG, the “self-splicing fitness (ln)” value runs as follows: (30 °C) -3.6 ± 0.17; (37 °C) -3.34 ± 0.25. The like results for GAGCAGCAAUAUUACGGUUU were, in that order, -3.11 ± 0.17 and -1.84 ± 0.19. The like results for GUCAAGCAAUAUUACGUUCG were, in that order, -2.63 ± 0.12 and -2.1 ± 0.15.

As to CAUCAGCAAUAUUACGCUGA, the “self-splicing fitness (ln)” value by setting is: (30 °C) -3.2 ± 0.22; (37 °C) -2.24 ± 0.27. The like results for CACCAGCAAUAUUACGCUAU were, in that order, -4.03 ± 0.16 and -2.21 ± 0.13.

For the sequence UGAAAGCAAUAUUACGAUAU, the “self-splicing fitness (ln)” value was -2.68 ± 0.18 (30 °C) and -1.21 ± 0.13 (37 °C). The like results for GUAGAGCAAUAUUACGGUGC were, in that order, -1.15 ± 0.13 and -1 ± 0.19. The like results for CUUUAGCAAUAUUACGCCAG were, in that order, -1.65 ± 0.28 and -0.616 ± 0.28. The like results for GGCGAGCAAUAUUACGUACG were, in that order, -2.43 ± 0.18 and -1.35 ± 0.22. Consider CGUCAGCAAUAUUACGAAAU, for which the “self-splicing fitness (ln)” value (30 °C) was -3.61 ± 0.23 and the “self-splicing fitness (ln)” value (37 °C) is -2.6 ± 0.22.

CUCUAGCAAUAUUACGGUAU: the “self-splicing fitness (ln)” value reads like this: (30 °C) -2.7 ± 0.16; (37 °C) -2.77 ± 0.23. In the case of CCGUAGCAAUAUUACGUAUG, the “self-splicing fitness (ln)” value was -0.772 ± 0.082 (30 °C) and 0.203 ± 0.12 (37 °C). The like results for UACGAGCAAUAUUACGUGAG were, in that order, -3.28 ± 0.16 and -3.58 ± 0.24. The like results for UCACAGCAAUAUUACGAGGG were, in that order, -2.01 ± 0.088 and -1.28 ± 0.12. In the case of GCGCAGCAAUAUUACGAUUA, the “self-splicing fitness (ln)” value runs as follows: (30 °C) -1.02 ± 0.13; (37 °C) -1.48 ± 0.13. The like results for GCUAAGCAAUAUUACGGAGG were, in that order, -1.11 ± 0.14 and -1.65 ± 0.29.

Take GAGAAGCAAUAUUACGCACU: the “self-splicing fitness (ln)” value reads like this: (30 °C) -1.73 ± 0.14; (37 °C) -0.249 ± 0.16.

As to UCACAGCAAUAUUACGGAAU, the “self-splicing fitness (ln)” value by setting is: (30 °C) -4.32 ± 0.25; (37 °C) -2.97 ± 0.22. The like results for AUUAAGCAAUAUUACGUGAG were, in that order, -0.882 ± 0.049 and -0.33 ± 0.081. The like results for GGCUAGCAAUAUUACGUCAC were, in that order, -2.28 ± 0.16 and -1.01 ± 0.17. The like results for CCUUAGCAAUAUUACGACUU were, in that order, -3.8 ± 0.35 and -2.73 ± 0.32. As to CUUCAGCAAUAUUACGUAGC, the “self-splicing fitness (ln)” value (30 °C) is -3.62 ± 0.16 and the “self-splicing fitness (ln)” value (37 °C) is -2.95 ± 0.25. The like results for GACAAGCAAUAUUACGGUGC were, in that order, -2.77 ± 0.21 and -1.63 ± 0.24. Consider UUGCAGCAAUAUUACGCAGG, for which the “self-splicing fitness (ln)” value is, setting by setting: (30 °C) -3.72 ± 0.25; (37 °C) -2.68 ± 0.25. The like results for UAGUAGCAAUAUUACGCUCA were, in that order, -0.29 ± 0.13 and 0.69 ± 0.15. The like results for UCGUAGCAAUAUUACGCAAA were, in that order, -3.4 ± 0.31 and -1.09 ± 0.31.

On to AUGCAGCAAUAUUACGUACU, for which the “self-splicing fitness (ln)” value reads like this: (30 °C) 0.346 ± 0.055; (37 °C) 0.441 ± 0.07. The like results for CGAUAGCAAUAUUACGUAAC were, in that order, -2.84 ± 0.17 and -3.84 ± 0.46. Regarding UGUGAGCAAUAUUACGCAGU, the “self-splicing fitness (ln)” value (37 °C) is -1.74 ± 0.26. For AGCGAGCAAUAUUACGCCUU, the “self-splicing fitness (ln)” value is, setting by setting: (30 °C) -1.94 ± 0.25; (37 °C) -2.62 ± 0.48.
